Laboratory results taken from patent US20230407297A1, “BIOENGINEERED WNT5A THERAPEUTICS FOR ADVANCED CANCERS” (The Regents of the University of California, priority 2020, published 2023).
Entries after “also recorded” stand apart in the source; their conditions may differ.

Assays:
LuCaP 35CR PDX tumors = assay: LuCaP 35CR patient derived xenograft model, combination with enzalutamide (Example 3); assay type: in vivo, mouse; settings: single treatment
Text: (§1) FIGS. 9A-9E. Targeting Wnt5A by BERA-Wnt5a siRNA resensitizes LuCaP35CR PDX organoids and tumor growth to enzalutamide treatment. FIG. 9A: Organoids derived from the LuCaP PDX model were established in an ex vivo 3D Matrigel format and treated with bioengineered BERA-Wnt5a siRNA. […] FIG. 9D: Mouse body weight was unaffected by all of the treatments.
(§2) To examine if targeting Wnt5a enhances enzalutamide treatment in resistant prostate cancer, we examined the combinational effects of targeting Wnt5a and enzalutamide in an ex vivo model. Organoids derived from the LuCaP PDX model were established in an ex vivo 3D Matrigel format and treated with bioengineered BERA-Wnt5a siRNA. […] To further determine the anti-tumor effects of Wnt5a inhibition in vivo, we employed a LuCaP 35CR patient derived xenograft model, which was treated with bioengineered BERA-Wnt5a siRNA.

LuCaP 35CR organoids = assay: LuCaP 35CR organoids, ex vivo 3D Matrigel; assay type: cell-based; settings: single treatment
Text: as §1, §2

Wnt5A = Wnt5A expression in CWR22rv1 cells; assay type: cell-based
C4-2B MDVR cells = assay: C4-2B MDVR cell number, combination with antiandrogens; assay type: cell-based
Protocol: (§3) FIGS. 5A-5B. […] Resistant C4-2B MDVR and PS1172 CRC prostate cancer cells were treated with either enzalutamide (Enza) or Wnt5a siRNA (#1) or the combination (#1+Enza) for three days and 5 days, and the cell numbers were determined.
FIGS. 6A-6C. […] Resistant C4-2B MDVR prostate cancer cells were treated with either enzalutamide (Enza, 20 uM) or tRNA-1 (10 nM) or tRNA-2 (10 nM) or the combination (combination) for 3 days and 6 days, and the cell numbers were determined.
FIGS. 7A-7B. Combination of tRNA Wnt5a with antiandrogens in C4-2B MDVR cells. C4-2B MDVR cells were treated with tRNA Wnt5a and antiandrogens such as apalutamide (Apa), darolutamide (Daro), enzalutamide (enza) individually or combination for 3 days and 6 days and the cell number was determined.
(§4) Enzalutamide resistant C4-2B MDVR cells and PS1172 CRC cells were treated with either enzalutamide (20 μM) or Wnt5a siRNA (#1) or their combination (enza+#1) for 3 days and 5 days (C4-2B MDVR cells) or 3 days and 6 days (PS1172 CRC cells), and the cell numbers were determined.
Resistant C4-2B MDVR prostate cancer cells were treated with either enzalutamide (Enza, 20 uM) or tRNA-1 (10 nM) or tRNA-2 (10 nM) or their combination for 3 days and 6 days, and the cell numbers were determined.
Knockdown of Wnt5a by tRNA-Wnt5a siRNA enhances anti-androgen (enzalutamide, apalutamide, darolutamide) treatments (FIG. 7A). Resistant C4-2B MDVR cells were treated with tRNA Wnt5a siRNA-2 and antiandrogens such as apalutamide (Apa), darolutamide (Daro), enzalutamide (enza) individually or their combination for 3 days and 6 days and the cell number was determined.

PS1172 CRC cells = assay: PS1172 CRC cell number, combination with enzalutamide; assay type: cell-based; settings: Wnt5a siRNA + enzalutamide 20 μM, 3 days and 6 days
Protocol: as §3, §4

[1] = tested on: enzalutamide resistant CWR22rv1 cells; assay: CWR22rv1 cell growth, alone and with enzalutamide; assay type: cell-based; settings: for improvement of enzalutamide treatment: CWR22rv1 cells, combined with enzalutamide; for cell growth: enzalutamide resistant CWR22rv1 cells, single agent
Text: In addition to spectrometry and gel electrophoresis analyses of target Wnt5A-siRNAs during the purification described above, we conducted HPLC analysis to validate the purity of isolated siRNAs and LC-MS studies to verify RNA sequence and identify possible posttranscriptional modifications.

Molecule: CNC(=O)c1ccc(N2C(=S)N(c3ccc(C#N)c(C(F)(F)F)c3)C(=O)C2(C)C)cc1F [enzalutamide]
- PSA expression (LuCaP 35CR PDX tumors): without reaching significance
- tumor growth (LuCaP 35CR PDX tumors): resistant
- organoid response (LuCaP 35CR organoids): resistant

Molecule: Wnt5a siRNA (#1): siRNA specific to Wnt5a, 5′-ACAAACUGGUCCACGAUCUCCGUGC-3′ (expressed or natural sequence)
- Wnt5A expression (Wnt5A): downregulated Wnt5A expression
- effect on enzalutamide treatment (cell numbers) (C4-2B MDVR cells; Wnt5a siRNA + enzalutamide 20 μM, 3 days and 5 days): synergistically enhanced enzalutamide treatment; also recorded: re-sensitize cells to enzalutamide
- effect on enzalutamide treatment (cell numbers) (PS1172 CRC cells): synergistically enhanced enzalutamide treatment; also recorded: re-sensitize cells to enzalutamide

B1: tRNA-siWnt5A-2: bioengineered tRNA-pre-miRNA chimera (human tRNA Leu / pre-miR-34a carrier) carrying Wnt5a siRNA #2, FIG. 8B, SEQ ID NO:21 (nucleic acid)
chain: NNCNCAACANAAAAAACNNNGNGNAANACNNGNAACGCNGAANNCACCAGGANGGCCGAGNGGNNAAGGCGNNGGACNGGCCAGCNGNGAGNGNNNCNNCUAGGAAGAACUUGGAAGACAUNGNGAGCAANAGNAAGGAAGUGUCUUCCGGUCUUUUCCUACUAGAAGNGCNGCACGNNGNNGGCCCGANCCAANGGACANANGNCCGCGNGGGNNCGAACCCCACNCCNGGNACCACNGCAGANCCNNAGCGAAAGCNAAGGANNNNNNNN
modifications: modified_base (1)..(2) t or u; modified_base (4)..(4) t or u; modified_base (10)..(10) t or u; modified_base (18)..(20) t or u; modified_base (22)..(22) t or u; modified_base (24)..(24) t or u; modified_base (27)..(27) t or u; modified_base (30)..(31) t or u; modified_base (33)..(33) t or u; modified_base (39)..(39) t or u; modified_base (43)..(44) t or u; modified_base (53)..(53) t or u; modified
- Wnt5A expression (Wnt5A): downregulated Wnt5A expression
- improvement of enzalutamide treatment [1]: improved enzalutamide treatment; also recorded: improved enza treatment
- cell growth [1]: inhibited cell growth
- effect on enzalutamide treatment (cell numbers) (C4-2B MDVR cells; chimera 10 nM + Enza 20 uM, 3 days and 6 days, listed as tRNA-Wnt5a siRNA-2): enhanced enzalutamide; also recorded: synergizes enzalutamide
- effect on apalutamide treatment (cell number) (C4-2B MDVR cells; combination with apalutamide, 3 days and 6 days): enhances
- effect on darolutamide treatment (cell number) (C4-2B MDVR cells; combination with darolutamide, 3 days and 6 days): enhances
- effect on enzalutamide treatment (cell number) (C4-2B MDVR cells; combination with enzalutamide, 3 days and 6 days): enhances

B2: tRNA-siWnt5A-1: bioengineered tRNA-pre-miRNA chimera (human tRNA Leu / pre-miR-34a carrier) carrying Wnt5a siRNA #1, FIG. 8A, SEQ ID NO:20 (nucleic acid)
chain: NNCNCAACANAAAAAACNNNGNGNAANACNNGNAACGCNGAANNCACCAGGANGGCCGAGNGGNNAAGGCGNNGGACNGGCCAGCNGNGAGNGNNNCNNACAAACUGGUCCACGAUCUCCGNGNGAGCAANAGNAAGGAAUGGAGAUCGGGAUCCAGUUUGCUAGAAGNGCNGCACGNNGNNGGCCCGANCCAANGGACANANGNCCGCGNGGGNNCGAACCCCACNCCNGGNACCACNGCAGANCCNNAGCGAAAGCNAAGGANNNNNNNN
modifications: modified_base (1)..(2) t or u; modified_base (4)..(4) t or u; modified_base (10)..(10) t or u; modified_base (18)..(20) t or u; modified_base (22)..(22) t or u; modified_base (24)..(24) t or u; modified_base (27)..(27) t or u; modified_base (30)..(31) t or u; modified_base (33)..(33) t or u; modified_base (39)..(39) t or u; modified_base (43)..(44) t or u; modified_base (53)..(53) t or u; modified
- Wnt5A expression (Wnt5A): downregulated Wnt5A expression
- improvement of enzalutamide treatment [1]: improved enzalutamide treatment; also recorded: improved enza treatment
- cell growth [1]: inhibited cell growth
- effect on enzalutamide treatment (cell numbers) (C4-2B MDVR cells; chimera 10 nM + Enza 20 uM, 3 days and 6 days, listed as tRNA-Wnt5a siRNA-1): enhanced enzalutamide; also recorded: synergizes enzalutamide
